In IntAct's records for PubMed 22291008:

B1: CMRF35-like molecule 5 (Homo sapiens), Q6UXZ3 (parent)
chain: MWLSPSLLLLILPGYSIAAKITGPTTVNGSEQGSLTVQCAYGSGWETYLKWRCQGADWNYCNILVKTNGSEQEVKKNRVSIRDNQKNHVFTVTMENLKRDDADSYWCGTERPGIDLGVKVQVTINPGTQTAVSEWTTTTASLAFTAAATQKTSSPLTRSPLKSTHFLFLFLLELPLLLSMLGTVLWVNRPQRRS
B2: High affinity immunoglobulin epsilon receptor subunit gamma (Homo sapiens), P30273 (parent)
chain: MIPAVVLLLLLLVEQAAALGEPQLCYILDAILFLYGIVLTLLYCRLKIQVRKAAITSYEKSDGVYTGLSTRNQETYETLKHEKPPQ
partner: B1 chain

Variants of: B1
Settings: with fcerg_human FCER1G, P30273

effect of a mutation on the interaction	Variant
with no effect	E173A

Variants of: B2
Settings: with clm5_human CD300LD, Q6UXZ3

effect of a mutation on the interaction	Variant
decreasing interaction strength	D29A
